Laboratory results published in patent US20260250421A1 (BIOCYTOGEN PHARMACEUTICALS BEIJING, published 2026).
Where a chain is given by its changes, count along the chain named.

B1: 1A7 (antibody, human IgG1, V domains shown)
VH: QVQLVESGGGVVQPGRSLRLSCAASGFTFSNYGMHWVRQAPGKGLEWVAVIYYDGSNKFYADSVKGRFTISRDNSKNTLYLQMSSLRAEDTAVYYCARDVAPPGSRAEYFHHWGQGTLVTVSS
VL: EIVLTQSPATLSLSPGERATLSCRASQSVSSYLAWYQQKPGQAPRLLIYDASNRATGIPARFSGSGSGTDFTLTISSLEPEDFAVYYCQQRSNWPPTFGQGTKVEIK
notes: also called anti-PTK7 antibody 1A7
B2: 2A5 (antibody, V domains shown)
VH: B1 VH with E6Q, Y52W, S56R, F59Y, S84N, P103A, H111Q, H112N
VL: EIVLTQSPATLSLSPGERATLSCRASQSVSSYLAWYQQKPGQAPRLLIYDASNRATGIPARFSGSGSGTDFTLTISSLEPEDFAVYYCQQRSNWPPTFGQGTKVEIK
notes: also called anti-PTK7 antibody 2A5
B3: 2D11 (antibody, V domains shown)
VH: B1 VH with N31S, Y52F, F59Y, S84N, A92S, P102A, H111Q, H112N
VL: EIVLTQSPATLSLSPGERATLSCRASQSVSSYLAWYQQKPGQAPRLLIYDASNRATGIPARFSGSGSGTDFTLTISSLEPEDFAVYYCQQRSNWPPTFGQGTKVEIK
notes: also called anti-PTK7 antibody 2D11
B4: 2F5 (antibody, V domains shown)
VH: B1 VH with A23V, V50I, F59Y, S84N, P102A, P103A, F110L
VL: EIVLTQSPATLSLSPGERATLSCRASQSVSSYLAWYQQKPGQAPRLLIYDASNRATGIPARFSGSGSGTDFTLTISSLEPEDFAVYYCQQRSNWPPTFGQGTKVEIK
notes: also called anti-PTK7 antibody 2F5
B5: 1A11 (antibody, V domains shown)
VH: QVQLVQSGPGLVKPSETLSLTCTVSGGSINSYYWNWIRQPPGKGLEWIGYIYYSGSTNYNPSLKSRVTISVDTSKNQFSLKLSSVTAADTAVYYCARDPHDYIRGHFDLWGRGTLFTVSS
VL: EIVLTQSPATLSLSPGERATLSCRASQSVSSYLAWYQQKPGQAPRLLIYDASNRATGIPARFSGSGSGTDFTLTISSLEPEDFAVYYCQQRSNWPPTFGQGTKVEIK
notes: also called anti-PTK7 antibody 1A11
B6: 1F2 (antibody, V domains shown)
VH: QVQLVQSGGGLVQPGGSLRLSCAASGFTFSRYEMNWVRQAPGKGLEWVSYINSIGSAINYADSVKGRFTISRDNAKNSLYLQMRSLRAEDTAVYYCVREDNWNPGYWGQGTLVTVSS
VL: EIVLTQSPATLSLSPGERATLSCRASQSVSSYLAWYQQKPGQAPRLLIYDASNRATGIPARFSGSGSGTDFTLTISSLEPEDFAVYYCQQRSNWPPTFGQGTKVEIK
notes: also called anti-PTK7 antibody 1F2
B7: 3C4 (antibody, V domains shown)
VH: QVQLEQSRAEVKKPGESLRISCKGSGYSFTSYWISWVRQMPGKGLEWMGRIDPSDSYTNYNPSFQGHVTISADKSISTAYLQWSSLKASDTAMYYCARRDGSYFDFDYWGQGTLVTVSS
VL: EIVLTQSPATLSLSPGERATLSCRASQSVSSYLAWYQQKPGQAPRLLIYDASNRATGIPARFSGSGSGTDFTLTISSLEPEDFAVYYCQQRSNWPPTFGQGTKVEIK
notes: also called anti-PTK7 antibody 3C4
B8: 3E6 (antibody, V domains shown)
VH: B7 VH with E5V, Q6E, R8G, K23R, N59K, N61S, S102D
VL: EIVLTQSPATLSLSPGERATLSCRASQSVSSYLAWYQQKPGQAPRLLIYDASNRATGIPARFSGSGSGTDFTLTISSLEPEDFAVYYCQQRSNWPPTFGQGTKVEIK
notes: also called anti-PTK7 antibody 3E6

Biological target: T1, human PTK7 on human cancer cell lines (human, UniProt Q13308 31-1070)
T1 construct: Endogenous PTK7 of human tumour cell lines; also called PTK7 on A-431, NCI-H520, NCI-N87, SK-OV-3, BT-20, HCC1954, NCI-H226, NCI-H358, HCT116, PC-3, NCI-H292, NCI-H1975 cells
T1 sequence: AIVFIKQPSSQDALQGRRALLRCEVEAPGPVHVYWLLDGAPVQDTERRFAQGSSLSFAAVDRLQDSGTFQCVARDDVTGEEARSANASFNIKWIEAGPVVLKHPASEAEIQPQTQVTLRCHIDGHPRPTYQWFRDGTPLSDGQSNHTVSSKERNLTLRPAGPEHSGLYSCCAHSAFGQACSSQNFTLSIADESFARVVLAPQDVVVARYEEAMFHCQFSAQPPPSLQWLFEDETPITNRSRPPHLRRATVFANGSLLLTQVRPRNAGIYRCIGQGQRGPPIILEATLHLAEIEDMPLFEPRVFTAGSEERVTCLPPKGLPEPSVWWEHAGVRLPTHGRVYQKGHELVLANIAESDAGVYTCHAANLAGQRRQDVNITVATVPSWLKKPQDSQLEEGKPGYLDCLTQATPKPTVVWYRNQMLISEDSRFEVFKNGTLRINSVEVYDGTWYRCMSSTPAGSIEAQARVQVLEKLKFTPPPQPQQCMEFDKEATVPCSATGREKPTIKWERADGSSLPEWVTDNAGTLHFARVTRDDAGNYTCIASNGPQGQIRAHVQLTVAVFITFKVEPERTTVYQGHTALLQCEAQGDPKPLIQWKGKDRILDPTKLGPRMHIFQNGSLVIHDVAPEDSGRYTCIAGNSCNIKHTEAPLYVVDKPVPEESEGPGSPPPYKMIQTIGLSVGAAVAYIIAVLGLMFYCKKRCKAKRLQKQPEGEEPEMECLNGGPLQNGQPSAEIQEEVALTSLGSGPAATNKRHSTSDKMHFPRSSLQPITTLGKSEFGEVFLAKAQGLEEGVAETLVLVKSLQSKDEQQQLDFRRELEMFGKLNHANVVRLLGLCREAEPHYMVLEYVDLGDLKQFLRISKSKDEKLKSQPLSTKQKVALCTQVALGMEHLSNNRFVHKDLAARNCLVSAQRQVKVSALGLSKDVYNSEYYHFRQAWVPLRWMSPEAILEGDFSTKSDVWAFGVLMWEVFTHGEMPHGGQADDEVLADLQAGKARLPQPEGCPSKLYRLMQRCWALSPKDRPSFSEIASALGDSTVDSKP
Assay: flow cytometry, PC-3 cells, Ab 5 ug/mL
Description: The binding activity of anti-PTK7 antibodies to cancer cell lines was verified by flow cytometry. […] Purified anti-PTK7 antibody with a concentration of 5 μg/mL was added to each well and was incubated at 4° C. for 30 minutes. […] The cells were collected, and the mean fluorescence intensity (MFI) was determined. Human IgG1 was used as ISO control.

Point of comparison: B7, MFI 66700. Against it:
- B1 — lower, 32500
- B2 — lower, 60700
- B3 — higher, 73000
- B4 — lower, 32400
- B5 — higher, 67200
- B6 — lower, 34900
- B8 — higher, 94600

Biological target: T2, His-tagged cynomolgus monkey PTK7 protein (cynomolgus monkey, UniProt A0A2K5VNI5 39-712)
T2 construct: Bought protein; also called cPTK7-His; ACRO Biosystems Cat# PT7-C52H3; not shown: His tag
T2 sequence: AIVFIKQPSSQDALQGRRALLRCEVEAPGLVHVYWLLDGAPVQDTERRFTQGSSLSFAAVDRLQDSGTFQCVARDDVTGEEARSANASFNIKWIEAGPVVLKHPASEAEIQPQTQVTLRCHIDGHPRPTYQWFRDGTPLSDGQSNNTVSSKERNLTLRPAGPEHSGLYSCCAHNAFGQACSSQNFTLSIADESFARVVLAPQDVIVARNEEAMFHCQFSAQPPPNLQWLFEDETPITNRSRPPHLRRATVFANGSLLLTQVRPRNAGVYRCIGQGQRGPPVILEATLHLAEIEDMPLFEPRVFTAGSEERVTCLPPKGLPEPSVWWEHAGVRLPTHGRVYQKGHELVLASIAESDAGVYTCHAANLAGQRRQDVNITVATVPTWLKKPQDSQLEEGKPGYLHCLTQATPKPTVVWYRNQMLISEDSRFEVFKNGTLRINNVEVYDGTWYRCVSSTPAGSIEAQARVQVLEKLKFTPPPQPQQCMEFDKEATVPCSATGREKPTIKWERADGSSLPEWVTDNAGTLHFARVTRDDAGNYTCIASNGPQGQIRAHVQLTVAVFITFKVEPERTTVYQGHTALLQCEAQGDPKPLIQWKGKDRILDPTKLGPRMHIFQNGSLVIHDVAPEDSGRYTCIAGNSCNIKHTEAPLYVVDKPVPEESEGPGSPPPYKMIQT
Assay: SPR Biacore 8K, Ab on Protein A chip
Description: (§1) Purified anti-PTK7 antibodies were diluted to 1 μg/mL and then injected into the Biacore™ 8K biosensor at 10 μL/min for about 50 seconds to achieve a desired protein density (e.g., about 50 response units (RU)). The His-tagged PTK7 protein at a concentration of 200 nM or 0 nM was then injected at 30 μL/min for 180 seconds. Dissociation was monitored for 400 seconds. The chip was regenerated after the last injection of each titration with glycine (pH 2.0, 30 μL/min for 30 seconds).

Point of comparison: B5, Kd 18.4 nM. Against it:
- B1 — within 1.5-fold, 17.9 nM
- B2 — 1.7-fold lower, 10.8 nM
- B3 — 6-fold lower, 3.08 nM
- B4 — 1.9-fold higher, 35.2 nM
- B6 — 1.6-fold higher, 30.2 nM
- B7 — within 1.5-fold, 23.2 nM
- B8 — 4.7-fold lower, 3.95 nM

Point of comparison: B2, koff 0.000439 s⁻¹. Against it:
- B1 — 1.7-fold higher, 0.000733 s⁻¹
- B3 — 2.5-fold lower, 0.000177 s⁻¹
- B4 — 3.3-fold higher, 0.00146 s⁻¹
- B5 — 3-fold higher, 0.00131 s⁻¹
- B6 — 22-fold higher, 0.00949 s⁻¹
- B7 — 4.3-fold higher, 0.00187 s⁻¹
- B8 — within 1.5-fold, 0.000481 s⁻¹

Point of comparison: B8, kon 122000 M⁻¹ s⁻¹. Against it:
- B1 — 3-fold lower, 41100 M⁻¹ s⁻¹
- B2 — 3-fold lower, 40700 M⁻¹ s⁻¹
- B3 — 2.1-fold lower, 57400 M⁻¹ s⁻¹
- B4 — 2.9-fold lower, 41600 M⁻¹ s⁻¹
- B5 — 1.7-fold lower, 71200 M⁻¹ s⁻¹
- B6 — 2.6-fold higher, 314000 M⁻¹ s⁻¹
- B7 — 1.5-fold lower, 80600 M⁻¹ s⁻¹

Biological target: T3, His-tagged dog PTK7 protein (dog, UniProt Q13308 31-703 (human entry))
T3 construct: also called dPTK7-His
T3 chain: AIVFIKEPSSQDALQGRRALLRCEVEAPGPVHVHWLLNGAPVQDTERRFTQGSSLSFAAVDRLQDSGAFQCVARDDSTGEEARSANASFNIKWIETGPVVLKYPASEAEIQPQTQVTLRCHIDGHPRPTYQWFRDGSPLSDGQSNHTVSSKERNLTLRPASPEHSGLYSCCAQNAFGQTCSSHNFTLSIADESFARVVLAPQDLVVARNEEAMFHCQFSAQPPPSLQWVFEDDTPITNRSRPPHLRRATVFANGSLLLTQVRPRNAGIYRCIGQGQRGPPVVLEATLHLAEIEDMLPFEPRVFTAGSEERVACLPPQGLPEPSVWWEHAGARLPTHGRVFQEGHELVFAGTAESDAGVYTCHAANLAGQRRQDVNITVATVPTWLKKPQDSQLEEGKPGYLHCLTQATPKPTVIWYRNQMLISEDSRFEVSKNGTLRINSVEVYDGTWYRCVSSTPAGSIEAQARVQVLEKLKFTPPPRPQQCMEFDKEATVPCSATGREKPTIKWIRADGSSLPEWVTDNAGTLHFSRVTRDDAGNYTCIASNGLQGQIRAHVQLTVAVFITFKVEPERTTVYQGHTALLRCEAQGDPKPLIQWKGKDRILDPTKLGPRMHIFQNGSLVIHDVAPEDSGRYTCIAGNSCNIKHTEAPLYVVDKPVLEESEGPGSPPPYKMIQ
Assay: SPR Biacore 8K, Ab on Protein A chip
Description: as §1

Point of comparison: B3, Kd 0.898 nM. Against it:
- B1 — 2.6-fold higher, 2.3 nM
- B2 — 3.8-fold higher, 3.43 nM
- B4 — 12-fold higher, 11.1 nM
- B5 — 16-fold higher, 14.5 nM
- B6 — 24-fold higher, 21.2 nM
- B7 — 9.4-fold higher, 8.48 nM
- B8 — 13-fold higher, 11.6 nM

Point of comparison: B6, koff 0.00927 s⁻¹. Against it:
- B1 — 70-fold lower, 0.000133 s⁻¹
- B2 — 56-fold lower, 0.000167 s⁻¹
- B3 — 170-fold lower, 5.47e-05 s⁻¹
- B4 — 16-fold lower, 0.000563 s⁻¹
- B5 — 7.5-fold lower, 0.00123 s⁻¹
- B7 — 2.3-fold lower, 0.00399 s⁻¹
- B8 — 5.4-fold lower, 0.00171 s⁻¹

Point of comparison: B6, kon 437000 M⁻¹ s⁻¹. Against it:
- B1 — 7.5-fold lower, 58000 M⁻¹ s⁻¹
- B2 — 9-fold lower, 48600 M⁻¹ s⁻¹
- B3 — 7.2-fold lower, 60900 M⁻¹ s⁻¹
- B4 — 8.6-fold lower, 50700 M⁻¹ s⁻¹
- B5 — 5.2-fold lower, 84600 M⁻¹ s⁻¹
- B7 — within 1.5-fold, 471000 M⁻¹ s⁻¹
- B8 — 3-fold lower, 147000 M⁻¹ s⁻¹
